In patent US20140363428A1 (Chugai, published 2014):

B1: IgG1-F1282 (antibody)
heavy: QVQLQESGPGLVKPSETLSLTCAVSGHSISHDHAWSWVRQPPGEGLEWIGFISYSGITNYNPSLQGRVTISRDNSKNTLYLQMNSLRAEDTAVYYCARSLARTTAMDYWGEGTLVTVSSASTKGPSVFPLAPSSKSTSGGTAALGCLVKDYFPEPVTVSWNSGALTSGVHTFPAVLQSSGLYSLSSVVTVPSSSLGTQTYICNVNHKPSNTKVDKKVEPKSCDKTHTCPPCPAPELRGGPKVFLFPPKPKDTLYISRNPEVTCVVVDVSHEDPEVKFNWYVDGVEVHNAKTKPREEQYNSTYRVVSVLTVLHQDWLNGKEYKCKVSNKALPAPIEKTISKAKGQPREPQVYTLPPSRDELTKNQVSLTCLVKGFYPSDIAVEWESNGQPENNYKTTPPVLDSDGSFFLYSKLTVDKSRWQQGNVFSCSVMHEALHYHVTKKDLSLSP
light: not shown
notes: EU numbering; copies: 2 + 2
B2: IgG1-F1283 (antibody)
heavy: QVQLQESGPGLVKPSETLSLTCAVSGHSISHDHAWSWVRQPPGEGLEWIGFISYSGITNYNPSLQGRVTISRDNSKNTLYLQMNSLRAEDTAVYYCARSLARTTAMDYWGEGTLVTVSSASTKGPSVFPLAPSSKSTSGGTAALGCLVKDYFPEPVTVSWNSGALTSGVHTFPAVLQSSGLYSLSSVVTVPSSSLGTQTYICNVNHKPSNTKVDKKVEPKSCDKTHTCPPCPAPELRGGPKVFLFPPKPKDTLYISRNPEVTCVVVDVSHEDPEVKFNWYVDGVEVHNAKTKPREEQYNSTYRVVSVLTVLHQDWLNGKEYKCKVSNKALPAPIEKTISKAKGQPREPQVYTLPPSRDELTKNQVSLTCLVKGFYPSDIAVEWESNGQPENNYKTTPPVLDSDGSFFLYSKLTVDKSRWQQGNVFSCSVMHEALDYHVTRKELSLSP
light: not shown
notes: EU numbering; copies: 2 + 2
B3: IgG1-F1284 (antibody)
heavy: QVQLQESGPGLVKPSETLSLTCAVSGHSISHDHAWSWVRQPPGEGLEWIGFISYSGITNYNPSLQGRVTISRDNSKNTLYLQMNSLRAEDTAVYYCARSLARTTAMDYWGEGTLVTVSSASTKGPSVFPLAPSSKSTSGGTAALGCLVKDYFPEPVTVSWNSGALTSGVHTFPAVLQSSGLYSLSSVVTVPSSSLGTQTYICNVNHKPSNTKVDKKVEPKSCDKTHTCPPCPAPELRGGPKVFLFPPKPKDTLYISRNPEVTCVVVDVSHEDPEVKFNWYVDGVEVHNAKTKPREEQYNSTYRVVSVLTVLHQDWLNGKEYKCKVSNKALPAPIEKTISKAKGQPREPQVYTLPPSRDELTKNQVSLTCLVKGFYPSDIAVEWESNGQPENNYKTTPPVLDSDGSFFLYSKLTVDKSRWQQGNVFSCSVMHEALDYHVTKKDLSLSP
light: not shown
notes: EU numbering; copies: 2 + 2
B4: IgG1-F1285 (antibody)
heavy: QVQLQESGPGLVKPSETLSLTCAVSGHSISHDHAWSWVRQPPGEGLEWIGFISYSGITNYNPSLQGRVTISRDNSKNTLYLQMNSLRAEDTAVYYCARSLARTTAMDYWGEGTLVTVSSASTKGPSVFPLAPSSKSTSGGTAALGCLVKDYFPEPVTVSWNSGALTSGVHTFPAVLQSSGLYSLSSVVTVPSSSLGTQTYICNVNHKPSNTKVDKKVEPKSCDKTHTCPPCPAPELRGGPKVFLFPPKPKDTLYITRTPEVTCVVVDVSHEDPEVKFNWYVDGVEVHNAKTKPREEQYNSTYRVVSVLTVLHQDWLNGKEYKCKVSNKALPAPIEKTISKAKGQPREPQVYTLPPSRDELTKNQVSLTCLVKGFYPSDIAVEWESNGQPENNYKTTPPVLDSDGSFFLYSKLTVDKSRWQQGNVFSCSVMHEALHYHVTKKDLSLSP
light: not shown
notes: EU numbering; copies: 2 + 2
B5: IgG1-F1286 (antibody)
heavy: QVQLQESGPGLVKPSETLSLTCAVSGHSISHDHAWSWVRQPPGEGLEWIGFISYSGITNYNPSLQGRVTISRDNSKNTLYLQMNSLRAEDTAVYYCARSLARTTAMDYWGEGTLVTVSSASTKGPSVFPLAPSSKSTSGGTAALGCLVKDYFPEPVTVSWNSGALTSGVHTFPAVLQSSGLYSLSSVVTVPSSSLGTQTYICNVNHKPSNTKVDKKVEPKSCDKTHTCPPCPAPELRGGPKVFLFPPKPKDTLYITRTPEVTCVVVDVSHEDPEVKFNWYVDGVEVHNAKTKPREEQYNSTYRVVSVLTVLHQDWLNGKEYKCKVSNKALPAPIEKTISKAKGQPREPQVYTLPPSRDELTKNQVSLTCLVKGFYPSDIAVEWESNGQPENNYKTTPPVLDSDGSFFLYSKLTVDKSRWQQGNVFSCSVMHEALDYHVTRKELSLSP
light: not shown
notes: EU numbering; copies: 2 + 2
B6: IgG1-F1288 (antibody)
heavy: QVQLQESGPGLVKPSETLSLTCAVSGHSISHDHAWSWVRQPPGEGLEWIGFISYSGITNYNPSLQGRVTISRDNSKNTLYLQMNSLRAEDTAVYYCARSLARTTAMDYWGEGTLVTVSSASTKGPSVFPLAPSSKSTSGGTAALGCLVKDYFPEPVTVSWNSGALTSGVHTFPAVLQSSGLYSLSSVVTVPSSSLGTQTYICNVNHKPSNTKVDKKVEPKSCDKTHTCPPCPAPELRGGPKVFLFPPKPKDTLYISREPEVTCVVVDVSHEDPEVKFNWYVDGVEVHNAKTKPREEQYNSTYRVVSVLTVLHQDWLNGKEYKCKVSNKALPAPIEKTISKAKGQPREPQVYTLPPSRDELTKNQVSLTCLVKGFYPSDIAVEWESNGQPENNYKTTPPVLDSDGSFFLYSKLTVDKSRWQQGNVFSCSVMHEALHYHVTKKDLSLSP
light: not shown
notes: EU numbering; copies: 2 + 2
B7: IgG1-F1289 (antibody)
heavy: QVQLQESGPGLVKPSETLSLTCAVSGHSISHDHAWSWVRQPPGEGLEWIGFISYSGITNYNPSLQGRVTISRDNSKNTLYLQMNSLRAEDTAVYYCARSLARTTAMDYWGEGTLVTVSSASTKGPSVFPLAPSSKSTSGGTAALGCLVKDYFPEPVTVSWNSGALTSGVHTFPAVLQSSGLYSLSSVVTVPSSSLGTQTYICNVNHKPSNTKVDKKVEPKSCDKTHTCPPCPAPELRGGPKVFLFPPKPKDTLYISREPEVTCVVVDVSHEDPEVKFNWYVDGVEVHNAKTKPREEQYNSTYRVVSVLTVLHQDWLNGKEYKCKVSNKALPAPIEKTISKAKGQPREPQVYTLPPSRDELTKNQVSLTCLVKGFYPSDIAVEWESNGQPENNYKTTPPVLDSDGSFFLYSKLTVDKSRWQQGNVFSCSVMHEALDYHVTRKELSLSP
light: not shown
notes: EU numbering; copies: 2 + 2
B8: IgG1-F1290 (antibody)
heavy: QVQLQESGPGLVKPSETLSLTCAVSGHSISHDHAWSWVRQPPGEGLEWIGFISYSGITNYNPSLQGRVTISRDNSKNTLYLQMNSLRAEDTAVYYCARSLARTTAMDYWGEGTLVTVSSASTKGPSVFPLAPSSKSTSGGTAALGCLVKDYFPEPVTVSWNSGALTSGVHTFPAVLQSSGLYSLSSVVTVPSSSLGTQTYICNVNHKPSNTKVDKKVEPKSCDKTHTCPPCPAPELRGGPKVFLFPPKPKDTLYISREPEVTCVVVDVSHEDPEVKFNWYVDGVEVHNAKTKPREEQYNSTYRVVSVLTVLHQDWLNGKEYKCKVSNKALPAPIEKTISKAKGQPREPQVYTLPPSRDELTKNQVSLTCLVKGFYPSDIAVEWESNGQPENNYKTTPPVLDSDGSFFLYSKLTVDKSRWQQGNVFSCSVMHEALDYHVTKKDLSLSP
light: not shown
notes: EU numbering; copies: 2 + 2
B9: IgG1-F1291 (antibody)
heavy: QVQLQESGPGLVKPSETLSLTCAVSGHSISHDHAWSWVRQPPGEGLEWIGFISYSGITNYNPSLQGRVTISRDNSKNTLYLQMNSLRAEDTAVYYCARSLARTTAMDYWGEGTLVTVSSASTKGPSVFPLAPSSKSTSGGTAALGCLVKDYFPEPVTVSWNSGALTSGVHTFPAVLQSSGLYSLSSVVTVPSSSLGTQTYICNVNHKPSNTKVDKKVEPKSCDKTHTCPPCPAPELRGGPKVFLFPPKPKDTLYISRTPEVTCVVVDVSHEDPEVKFNWYVDGVEVHNAKTKPREEQYNSTYRVVSVLTVLHQDWLNGKEYKCKVSNKALPAPIEKTISKAKGQPREPQVYTLPPSRDELTKNQVSLTCLVKGFYPSDIAVEWESNGQPENNYKTTPPVLDSDGSFFLYSKLTVDKSRWQQGNVFSCSVMHEALDYHVTQKSLSLSP
light: not shown
notes: EU numbering; copies: 2 + 2
B10: IgG1-F1292 (antibody)
heavy: QVQLQESGPGLVKPSETLSLTCAVSGHSISHDHAWSWVRQPPGEGLEWIGFISYSGITNYNPSLQGRVTISRDNSKNTLYLQMNSLRAEDTAVYYCARSLARTTAMDYWGEGTLVTVSSASTKGPSVFPLAPSSKSTSGGTAALGCLVKDYFPEPVTVSWNSGALTSGVHTFPAVLQSSGLYSLSSVVTVPSSSLGTQTYICNVNHKPSNTKVDKKVEPKSCDKTHTCPPCPAPELRGGPKVFLFPPKPKDTLMISRTPEVTCVVVDVSHEDPEVKFNWYVDGVEVHNAKTKPREEQYNSTYRVVSVLTVLHQDWLNGKEYKCKVSNKALPAPIEKTISKAKGQPREPQVYTLPPSRDELTKNQVSLTCLVKGFYPSDIAVEWESNGQPENNYKTTPPVLDSDGSFFLYSKLTVDKSRWQQGNVFSCSVMHEALDWHVTRKELSLSP
light: not shown
notes: EU numbering; copies: 2 + 2
B11: IgG1-F1293 (antibody)
heavy: QVQLQESGPGLVKPSETLSLTCAVSGHSISHDHAWSWVRQPPGEGLEWIGFISYSGITNYNPSLQGRVTISRDNSKNTLYLQMNSLRAEDTAVYYCARSLARTTAMDYWGEGTLVTVSSASTKGPSVFPLAPSSKSTSGGTAALGCLVKDYFPEPVTVSWNSGALTSGVHTFPAVLQSSGLYSLSSVVTVPSSSLGTQTYICNVNHKPSNTKVDKKVEPKSCDKTHTCPPCPAPELRGGPKVFLFPPKPKDTLYISREPEVTCVVVDVSHEDPEVKFNWYVDGVEVHNAKTKPREEQYNSTYRVVSVLTVLHQDWLNGKEYKCKVSNKALPAPIEKTISKAKGQPREPQVYTLPPSRDELTKNQVSLTCLVKGFYPSDIAVEWESNGQPENNYKTTPPVLDSDGSFFLYSKLTVDKSRWQQGNVFSCSVMHEALHYHYTRKELSLSP
light: not shown
notes: EU numbering; copies: 2 + 2
B12: IgG1-F1295 (antibody)
heavy: QVQLQESGPGLVKPSETLSLTCAVSGHSISHDHAWSWVRQPPGEGLEWIGFISYSGITNYNPSLQGRVTISRDNSKNTLYLQMNSLRAEDTAVYYCARSLARTTAMDYWGEGTLVTVSSASTKGPSVFPLAPSSKSTSGGTAALGCLVKDYFPEPVTVSWNSGALTSGVHTFPAVLQSSGLYSLSSVVTVPSSSLGTQTYICNVNHKPSNTKVDKKVEPKSCDKTHTCPPCPAPELRGGPKVFLFPPKPKDTLYISREPEVTCVVVDVSHEDPEVKFNWYVDGVEVHNAKTKPREEQYNSTYRVVSVLTVLHQDWLNGKEYKCKVSNKALPAPIEKTISKAKGQPREPQVYTLPPSRDELTKNQVSLTCLVKGFYPSDIAVEWESNGQPENNYKTTPPVLDSDGSFFLYSKLTVDKSRWQQGNVFSCSVMHEALHYHFTRKELSLSP
light: not shown
notes: EU numbering; copies: 2 + 2

Molecular target: T1, soluble human FcRn (human, UniProt P55899 24-297; P61769 21-119)
T1 construct: Heterodimer of FcRn alpha chain and beta2-microglobulin; also called hFcRn
T1 sequence (P55899 24-297 limits assumed, chain 1 of 2): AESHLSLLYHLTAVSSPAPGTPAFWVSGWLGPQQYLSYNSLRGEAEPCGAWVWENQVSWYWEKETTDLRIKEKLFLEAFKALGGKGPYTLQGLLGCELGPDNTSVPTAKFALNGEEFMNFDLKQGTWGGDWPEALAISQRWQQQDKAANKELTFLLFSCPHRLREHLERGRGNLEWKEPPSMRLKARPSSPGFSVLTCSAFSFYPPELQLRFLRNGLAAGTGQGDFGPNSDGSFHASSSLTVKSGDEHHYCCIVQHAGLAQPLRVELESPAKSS
T1 sequence (P61769 21-119 limits assumed, chain 2 of 2): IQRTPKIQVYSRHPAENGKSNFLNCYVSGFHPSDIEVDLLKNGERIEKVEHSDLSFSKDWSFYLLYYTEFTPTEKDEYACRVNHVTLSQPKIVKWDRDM
Assay: SPR (Biacore T100), antibody captured by protein L, hFcRn as analyte, pH 7.0, 25 C;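 also: KD calculated from fitted association and dissociation rate constants of the sensorgrams, protein L amine-coupled to the sensor chip, sodium phosphate running buffer with NaCl and Tween20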
Experimental: An appropriate amount of protein L (ACTIGEN) was immobilized onto Sensor chip CM4 (GE Healthcare) by the amino coupling method, and the chip was allowed to capture an antibody of interest. Then, diluted FcRn solutions and running buffer (as a reference solution) were injected to allow human FcRn to interact with the antibody captured on the sensor chip. The running buffer used comprised 50 mmol/l sodium phosphate, 150 mmol/l NaCl, and 0.05% (w/v) Tween20 (pH 7.0). FcRn was diluted using each buffer. The chip was regenerated using 10 mmol/l glycine-HCl (pH 1.5). Assays were carried out exclusively at 25 degrees C. The association rate constant ka (1/Ms) and dissociation rate constant kd (1/s), both of which are kinetic parameters, were calculated based on the sensorgrams obtained in the assays, and KD (M) of each antibody for human FcRn was determined from these values. Each parameter was calculated using Biacore T100 Evaluation Software (GE Healthcare).

**Q.** For B1, which Kd is on record?
**A.** The Kd was 77 nM.

**Q.** Which Kd does the source give for B2 here?
**A.** The Kd was 130 nM.

**Q.** B3 was tested. Which Kd did it give?
**A.** The Kd was 110 nM.

**Q.** How did the Kd turn out when B4 was run?
**A.** Its Kd is 94 nM.

**Q.** With B5 as the binder, how does the Kd read?
**A.** The Kd was 160 nM.

**Q.** How did the Kd turn out when B6 was run?
**A.** Its Kd is 79 nM.

**Q.** B7 was tested. Which Kd did it give?
**A.** Its Kd is 130 nM.

**Q.** How did the Kd turn out when B8 was run?
**A.** The Kd was 110 nM.

**Q.** B9 was tested. Which Kd did it give?
**A.** The Kd was 150 nM.

**Q.** B10 was tested. Which Kd did it give?
**A.** Its Kd is 420 nM.

**Q.** For B11, which Kd is on record?
**A.** Its Kd is 160 nM.

**Q.** For B12, which Kd is on record?
**A.** Its Kd is 98 nM.
